Measurements reported in patent publication US20160311921A1.

Target: farletuzumab
Test: cell-based or functional assay

Sequence of farletuzumab (heavy, as listed by the source, chain 1 of 2): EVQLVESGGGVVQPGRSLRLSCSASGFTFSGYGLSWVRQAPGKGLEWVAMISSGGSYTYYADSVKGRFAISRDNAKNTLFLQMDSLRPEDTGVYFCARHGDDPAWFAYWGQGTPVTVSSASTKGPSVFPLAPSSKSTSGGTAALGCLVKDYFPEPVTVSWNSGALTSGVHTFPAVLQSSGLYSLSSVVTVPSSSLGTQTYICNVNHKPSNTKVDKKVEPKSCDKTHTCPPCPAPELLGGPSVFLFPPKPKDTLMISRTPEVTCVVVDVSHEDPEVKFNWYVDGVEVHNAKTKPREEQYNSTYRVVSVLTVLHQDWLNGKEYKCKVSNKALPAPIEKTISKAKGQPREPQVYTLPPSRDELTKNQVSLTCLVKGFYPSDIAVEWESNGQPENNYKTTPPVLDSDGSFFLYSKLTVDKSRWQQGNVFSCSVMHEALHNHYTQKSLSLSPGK
Sequence of farletuzumab (light, as listed by the source, chain 2 of 2): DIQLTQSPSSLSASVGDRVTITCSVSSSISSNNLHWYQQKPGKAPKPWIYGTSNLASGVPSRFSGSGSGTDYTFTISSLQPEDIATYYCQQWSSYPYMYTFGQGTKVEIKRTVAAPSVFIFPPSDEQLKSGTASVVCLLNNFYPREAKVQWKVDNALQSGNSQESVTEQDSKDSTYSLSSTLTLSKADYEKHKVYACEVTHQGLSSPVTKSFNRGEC

How did the inhibition of Farletuzumab ADCC activity (luminescence, Promega ADCC Reporter Bioassay Core Kit, CHO-hFR-α target cells) turn out when “cancer antigen 125 (CA125) (from UniProt Q8WXI7 1-14451)” was run?
Its inhibition of Farletuzumab ADCC activity (luminescence, Promega ADCC Reporter Bioassay Core Kit, CHO-hFR-α target cells) is 50%.
